Legend:
[1] = molecular target: T1, human coagulation factor XII (human); assay: SPR; Biacore 3000, CM3 chip, Gallo2179 immobilised (1900 RUs) by amine coupling; FXII as analyte at 12.5 - 200 nM; 25°C, PBS running buffer; 1:1 Langmuir global fit; settings: both partners purified
T1 construct: coagulation factor XII (serine protease zymogen), human; also called FXII; contact factor XII; source: bought: Haemochrom Diagnostica, Germany

[2] = molecular target: T1, human coagulation factor XII; assay: MST; NT-647 labeled Gallo2179 kept constant (estimated 50-300 nM); 16-step serial dilution of non-labeled FXII (6.25 μM - 0.19 nM) or HK (4.15 μM - 0.12 nM); Monolith NT.115; three independent measurements; settings: both partners purified

B1: Pil1 collagen-binding adhesin Gallo2179 of Streptococcus gallolyticus subsp. gallolyticus UCN34, recombinant (natural protein)
chain: MFYYLGEGIINFRKLFIALVLIIFSFFTVSEVRAADVSNRVTSLTVATTELQDGGRTTVRVEFNDRAGKIHSGDTIEVTWSISNSIYLNGYTKSIPLTIQGVNVGTLEVTEHNAIFKFNSNIETMENVSGWGEFEVIGRNVTNTSSENTGTAVVQVGGYSQNISITKPQSGTGTSSFYYKTGDIQPSDTNRVRWFLLVNNNKEYVESDVTIEDDIQSGQTLDMSSFDITISGYQNKRFVGESALEEFKRSCPNSSIEITQKSEGGHISIRLSRDDVILNTISIHYKTKILDFDQEKFANNSNITYKPLYKDWVTNKESNYEVVNVNANGGVDGSRYTSVTVNKVWNDKDNQDGKRSDKVVIQLLADGQEISGKQLELSEENGWSGTFEKLNKYHSDNTLITYTVKEVTDLPDYQTTVSENSKNNYTITNTHIPEVIDLSGKKIWDDNNNQDGIRPETITVHLLANGVDTGQVKTVSKSDNWEYQFKDLPKYQNGEKVVYTVSEDVVVGYEMSVSGMNLTNTHTPEVTNILISKYWDDNDDKLKKRPESIQITLHANGKEYQTVTLTASNQWQYEFKDLPKYKDGEKIAYTVTEADVPNYQLISIEEDESGNWKITNKVEESYLFPNTGGKGISGYYTVGIVLLLSIGLLFLKKFIGDY
modifications: fluorescent label NT-647 covalently attached by NHS coupling (in the MST only)
Binder B1 has a Kd [1] of 14 nM and a Kd [2] of 12.9 nM.

— article PMC5955193, “Streptococcus gallolyticus subsp. gallolyticus endocarditis isolate interferes with coagulation and activates the contact system” (Virulence, 2017)
